Data from the supplement of paper PMC9732359.
± gives the uncertainty stated by the source.

test: protein stability index of a GFP-peptide fusion (yeast GPS) (PSI 1-4); higher = more stable; sorted into four equal gates, so the index is relative within each strain; settings: doa10∆
Outline: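 Plasmids in a pooled yeast library fused tiled 17-residue yeast protein peptides downstream of GFP and also expressed Cherry. Mid-log cultures grown without leucine were sorted into four equal gates by GFP/Cherry fluorescence ratio. Each gate's plasmids were PCR-amplified and Illumina-sequenced, and reads were matched to strains by barcodes. The protein stability index is derived by multiplying each gate's read frequency by its gate number and summing the results.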

Sequence | protein stability index
FPKIDSLAQNDCNSALD [RPN5] | 2.52 ± 0.062
FPTDLEIFQLFTNPSVD [SWI1] | 2.59 ± 0.069

same assay, conditions: pdr5∆

Sequence | protein stability index
ESLYDLIEFQPSQGVHY [MED6] | 2.87 ± 0.061
ESMLHLSIWIKNYPEYF [IRR1] | 2.06 ± 0.038
ESMSYLPDPILKNFLSY [MCD1] | 2.79 ± 0.12
ESNRQSVIVDSKVTVPP [ESC2] | 2.87 ± 0.082
ESSFIEIDDTEAEVTAE [BRR2] | 3.1 ± 0.088
ESSLTISLYFNDILDEL [ECM29] | 2.25 ± 0.051
ESSYTEVTKLLKNEGID [SMC4] | 3.17 ± 0.15
ESTAGSASTSATGISGS [ECM29] | 3.35 ± 0.053
ESTETGYVIKVFNNGIV [DIS3] | 3.08 ± 0.21
ESWANQLTVCGAIIGWT [FAS2] | 1.3 ± 0.038
ESWFKALAGSEINWRHA [FAS1] | 2.54 ± 0.081
ETASFIPTKESLTRDFE [YIL149C/MLP2] | 3.09 ± 0.075
ETDHANTENNDPDIPMT [IRR1] | 2.59 ± 0.066
ETDNEMNGNGKPGIPRG [SIR3] | 3.11 ± 0.083
ETEAEEDHMLKKIENTM [RPO21] | 3.37 ± 0.18
ETELFEPGVLNTGDGSI [ECM29] | 3.2 ± 0.11
ETENSESIASSNTYKEE [MCD1] | 2.55 ± 0.29
ETFISSMTATADVLAMA [RIP1] | 2.48 ± 0.097
ETGNFSWASEGISKKTR [RPS8A] | 3.267 ± 0.028
ETISNVAKTAPNSNKTH [SNF2] | 3 ± 0.061
ETKADGILLETISVPQI [RRP6] | 2.52 ± 0.056
ETKVDELRYQSHILNSH [DSN1] | 2.84 ± 0.057
ETLKRDRKQSQATNATN [ARP7] | 2.86 ± 0.082
ETNAKPFSFSSATSTTE [YLR335W/NUP2] | 2.4 ± 0.053
ETPSRLLLSPDQWYCID [ITC1] | 3.21 ± 0.085

Sequence | protein stability index
ETQVEVEKNEIGKMYDE [NNF1] | 3.21 ± 0.11
EVAIRDVNLDVRIHSIQ [IRR1] | 2.1 ± 0.061
EVDEKPTETYSDVGGLD [RPT5] | 3.3 ± 0.07
EVFQLRIFVKEILEKCA [GAL11] | 2.11 ± 0.12
EVGDVCINELDNWNAPL [RPO31] | 3.06 ± 0.074
EVRGQVPVIESAGFETD [SNU114] | 1.59 ± 0.06
EVRRAAMLNLINDNNTR [YCG1] | 3.41 ± 0.11
EVSCKLLETITYVLNTW [YML103C/NUP188] | 2.35 ± 0.073
EVVQTGAKNIEITVVKP [PRE6] | 3.3 ± 0.093
EWDLYPQGFSSVERGRK [REC8] | 3.54 ± 0.14
EWFEQNNSEQDQEIVIQ [ISW2] | 3.19 ± 0.14
EWHSSLTLKEAELLVLK [PUP2] | 2.47 ± 0.27
EWNGKSFQKKSNDKVVE [ISW2] | 3.34 ± 0.058
EYADNDEDKFKKLKPIV [PRP28] | 2.65 ± 0.092
EYIIAAIRKAPHNSKSL [RPN3] | 2.76 ± 0.061
EYQVIGRRLPTESVPEP [RPL20A] | 3.21 ± 0.1
EYTINLHKRLHGVSFKK [RPL31A] | 2.19 ± 0.088
FAAAPNDTSSGTNAMLP [SNF5] | 3.26 ± 0.13
FAFWNLLVKFIKFFWNN [YLR018C/POM34] | 2 ± 0.076
FAGSNNQPHQSQTPSFN [YOR098C/NUP1] | 2.91 ± 0.036
FAKFIHHIHHFEKKELQ [IRR1] | 2.74 ± 0.064
FALPAGSPKSATSKTSE [CDC53] | 2.92 ± 0.13
FAVALKNEPDYSKAKYP [CDC53] | 2.46 ± 0.081
FDDRGDVKVIMATNKIE [RPT2] | 3.18 ± 0.15
FDDSSRIVNHKTKLWGF [LIN1] | 2.98 ± 0.08

Sequence | protein stability index
FDERIKFANQLHDEYLV [RPN3] | 2.02 ± 0.12
FDKIIKIREDHINKIPS [SRB8] | 2.95 ± 0.066
FDMTNHYNDSQQLRTWK [SRB8] | 3.01 ± 0.084
FDQAGKKVSRRNARAAR [RPL13B] | 3.01 ± 0.14
FDRLNGNDTISKFYNMK [SSN2] | 3.06 ± 0.082
FDSTAFNATVDETKGFD [MED2] | 3.28 ± 0.063
FDTSIKLDIISDPESER [RPN14] | 2.94 ± 0.082
FDVMIDEESLVKYMPEQ [RPO21] | 2.04 ± 0.16
FEDSMQFKKLTHAQRTG [PRP8] | 3.11 ± 0.083
FEHGRTPAEMSRPATTT [FAS2] | 3.13 ± 0.081
FEPASRLQGIKLLDNIQ [COR1] | 2.98 ± 0.063
FEQCCKEKKELQMRLKE [YIL149C/MLP2] | 3.11 ± 0.29
FFAYFIGWCKEDPKRRA [YJL039C/NUP192] | 2.03 ± 0.078
FFMSERSSRLHIVYSLL [YML103C/NUP188] | 2.33 ± 0.079
FFPYYVHTIIAGLDEDG [PRE7] | 3.31 ± 0.12
FGAPNNPNSTAITADLG [YGL172W/NUP49] | 3 ± 0.078
FGEWAGMTKSNIYNFSP [BRR2] | 3.05 ± 0.082
FGGSQPNSGTATTGGFG [YGR119C/NUP57] | 3.05 ± 0.12
FGKLAFPTRLGQGYRKV [YJL039C/NUP192] | 1.7 ± 0.1
FGLGYGDVGKNHITEFP [RPC31] | 3.22 ± 0.11
FGRKKRKGGPATAEKLP [RPT2] | 3.28 ± 0.12
FGRKNDRQCMIMDELLS [DIB1] | 2.65 ± 0.038
FGWLLSDNSVSVRLQVT [IRR1] | 1.32 ± 0.095
FHKQQAHFWKPVLNLDK [RPL28] | 3.19 ± 0.056
FHVGFIAKIKKVCECVC [RPO21] | 1.27 ± 0.064

Sequence | protein stability index
FIESIVVDFKNKENDNV [SNF12] | 3.04 ± 0.18
FIKLQKIDIIELQKSLS [FAS1] | 2 ± 0.044
FIMASVGKYDKAIELLE [SRP72] | 2.38 ± 0.11
FIPHGLKRRQVIEQCYL [SRB8] | 2.63 ± 0.08
FIRLPHWPLNWYLILSI [RGR1] | 1.4 ± 0.064
FIRSTNSWFDVTWRTFT [FAS1] | 1.14 ± 0.13
FKPSQEPEFHALSQSSL [RRI1] | 2.83 ± 0.043
FKTYRNETIIDNFSPHQ [SMC3] | 1.42 ± 0.18
FKYLLGVTDLFRHFIGI [ISW2] | 1.35 ± 0.048
FLDSMAQKYASIVGVDL [FAS2] | 2.29 ± 0.048
FLDSVHKQGSSYVAVLG [POP7] | 2.17 ± 0.037
FLERFDFYTRHHFTCEI [ITC1] | 2.26 ± 0.097
FLGALKYLPHAILKLLE [PRP8] | 1.82 ± 0.061
FLKLYVLVKWTRTIKQN [RGR1] | 1.85 ± 0.14
FLQDKVQIKDVNDRYQI [CSI1] | 1.58 ± 0.12
FLSKPSKALYPDYYMII [SNF2] | 2.4 ± 0.045
FLTGQFASNKKINDESS [YML103C/NUP188] | 2.23 ± 0.055
FLWPFKLSNPSGGWGVP [RPL7A] | 2.85 ± 0.075
FNELCDPESRTQSYNNQ [POP1] | 3.02 ± 0.12
FNLLILSLNKRIYDREP [YCG1] | 2.41 ± 0.091
FNPQDTEENIKGETNSE [RRP45] | 3.19 ± 0.14
FNQRDGEHEKSNILLNS [MED1] | 1.96 ± 0.11
